Results taken from article PMC12327846.

Target: T1, DtxR (Corynebacterium glutamicum) (UniProt Q8NP95)
T1 sequence: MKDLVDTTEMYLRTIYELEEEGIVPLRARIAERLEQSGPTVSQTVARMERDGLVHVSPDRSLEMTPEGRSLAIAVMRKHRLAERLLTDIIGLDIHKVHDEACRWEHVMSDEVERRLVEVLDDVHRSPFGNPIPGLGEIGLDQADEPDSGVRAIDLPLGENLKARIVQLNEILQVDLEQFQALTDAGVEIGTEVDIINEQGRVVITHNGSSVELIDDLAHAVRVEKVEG
Assay: EMSA
Conditions: EMSA: 31 nM DNA, DtxR at 0/50/200-fold (A) or 0/300/400-fold (B) excess; 50 mM Tris-HCl pH 7.5, 5 mM MgCl2 (rest of buffer not in material); 30 min, room …

“AACCTGGGGGTTATATAAAAAACTTCACAAAAAGGTTGCATCCGCATCAACCGAAAGATAGTGTGTGTGAGGCAAGCCTAAGTAAACTTCTTCAAGGTTCGGGCTGGTTCCTTGAAGACGG (double strand) [xerC promoter 121 bp]” was tested, and the binding was “binds”.

“GAGTAGTAGCAGTGGGTATTTGCAAGCCTTTGACAAGTTACTAAACCGTGCTACCGAAACCCCTCGTGTTTAAATCTAGAAGTTTAAAGGGTGAAAACAGTCCATTACTTAAGCACCAATC (double strand) [NCgl0177 promoter 121 bp]” was tested, and the binding was “no binding”.

For “GGACCTAAGCGTGTAAGATGGAAACGTCTGTATCGGATAAGTAGCGAGGAGTGTTCGTTAAAAGTGGCAAACACTGAACACAATTATGACGCTTCATCGATCACCATCCTTGAAGGTCTTG (double strand) [gyrB promoter 121 bp]”, the binding was “no binding”.

With “GTGGCGCTTTGCCTGTGTTGCTTAGGCGGCGTTGAAAATGAACTACGAATGAAAAGTTCGGGAATTGTCTAATCCGTACTAAGCTGTCTACACAATGTCTACTTCAGTTACTTCACCAGC (double strand) [metH promoter 121 bp]” the binding was “binds”.

“TAGTCGTATCAAAAAGTGCTCTGATCTTAACTTTGCCCTACCTAAATACATGACCCCACCACGACGGCCAGTACTAACGACAGAATCCACTAGCGAACCCATTTATTAACAAACATTGCAA (double strand) [NCgl2776 promoter 121 bp (primers named NCgl2766)]” was tested, and the binding was “binds”.

With “TTTGACGTGCTTTTTTAGCACGCCATTAAGCTAAAAATAAGGTTAGGGTGCGTTATGTTTTCAGGTATCAAAAGGTGCTAATGCCTTTATTGTGTTTCGCATTGTCATTTACCACATGAAG (double strand) [cepA promoter 121 bp]” the binding was “binds”.
